Test results as given in publication PMC8342540, “The middle lipin domain adopts a membrane-binding dimeric protein fold” (Nature Communications, 2021).

How the values were obtained:
[1] = target: the molecule itself; assay: crystal structure; mouse lipin 2 M-Lip^xtal, 0.2 M calcium acetate, 20% PEG 3350, hanging drop, RT
[2] = target: the molecule itself; assay: SEC-MALS; 1.6 mg injected onto Superdex 200 Increase 10/300, flow 0.35 ml/min
[3] = target: the molecule itself; assay: SEC; Superdex 200 10/300 in 20 mM Tris pH 8.0, 150 mM NaCl, 10 mM 2-mercaptoethanol; elution compared with MW standards

B1: mouse lipin 2 M-Lip^xtal domain (residues 459–549) (domain or fragment, UniProt Q99PI5 459-549, looked up)
chain: SAMDLPDVTLSLCGGLSENGEISKEKFMEHIITYHEFAENPGLIDNPNLVIRIYNRYYNWALAAPMILSLQVFQKSLPKATVESWVKDKMP
notes: mouse lipin 2, M-Lip^xtal domain, residues 459–549; Cloned into pET28b with NdeI and NotI; the purification section names pET28a; source: E. coli BL21 (DE3) RIPL, purified (Ni-NTA, SEC)
B1: binds [1].

B2: mouse lipin 1 M-Lip^xtal domain (residues 458–548), as used in SEC-MALS (domain or fragment, UniProt Q91ZP3-2 458-548, looked up)
chain: SLRDLPSIAISLCGGLSDHREITKDAFLEQAVSYQQFADNPAIIDDPNLVVKVGNKYYNWTTAAPLLLAMQAFQKPLPKATVESIMRDKMP
notes: mouse lipin 1, M-Lip^xtal domain, residues 458–548; numbers count on: mouse lipin 1 alpha (891 residues); The stated dimer mass of 26 kDa (13 kDa a chain) would fit the 91 residues plus a vector-encoded His tag (surmise); source: E. coli BL21 (DE3) RIPL, purified (Ni-NTA, SEC)
With B2 the “stoichiometry N” value [2] was 2.

B3: full-length mouse lipin 1 alpha (residues 1–891), from Sf9 cells (natural protein, UniProt Q91ZP3-2 1-891, looked up)
chain: MNYVGQLAGQVFVTVKELYKGLNPATLSGCIDIIVIRQPNGSLQCSPFHVRFGKMGVLRSREKVVDIEINGESVDLHMKLGDNGEAFFVQETDNDQEIIPMYLATSPILSEGAARMESQLKRNSVDRIRCLDPTTAAQGLPPSDTPSTGSLGKKRRKRRRKAQLDNLKRDDNVNSSEDEDMFPIEMSSDEDTAPMDGSRTLPNDVPPFQDDIPKENFPSISTHPQSASYPSSDREWSPSPSPSGSRPSTPKSDSELVSKSADRLTPKNNLEMLWLWGELPQAAKSSSPHKMKESSPLGSRKTPDKMNFQAIHSESSDTFSDQSPTMARGLLIHQSKAQTEMQFVNEEDLESLGAAAPPSPVAEELKAPYPNTAQSSSKTDSPSRKKDKRSRHLGADGVYLDDLTDMDPEVAALYFPKNGDPGGLPKQASDNGARSANQSPQSVGGSGIDSGVESTSDSLRDLPSIAISLCGGLSDHREITKDAFLEQAVSYQQFADNPAIIDDPNLVVKVGNKYYNWTTAAPLLLAMQAFQKPLPKATVESIMRDKMPKKGGRWWFSWRGRNATIKEESKPEQCLTGKGHNTGEQPAQLGLATRIKHESSSSDEEHAAAKPSGSSHLSLLSNVSYKKTLRLTSEQLKSLKLKNGPNDVVFSVTTQYQGTCRCEGTIYLWNWDDKVIISDIDGTITRSDTLGHILPTLGKDWTHQGIAKLYHKVSQNGYKFLYCSARAIGMADMTRGYLHWVNERGTVLPQGPLLLSPSSLFSALHREVIEKKPEKFKVQCLTDIKNLFFPNTEPFYAAFGNRPADVYSYKQVGVSLNRIFTVNPKGELVQEHAKTNISSYVRLCEVVDHVFPLLKRSHSCDFPCSDTFSNFTFWREPLPPFENQDMHSASA
notes: mouse lipin 1 alpha, full length, residues 1–891 (891 residues printed); Vector YM-Bac3, a modified pFastBac Htb; also called wild-type lipin 1; recombinant lipin 1; source: Sf9, baculovirus, purified (Ni-NTA, Streptactin-XT, SEC)
B3: binds [3].
